In patent US20110262446A1 (published 2011):

Tests used:
[1] = molecular target: T1, IGF-II (amino acids 1-67) (human, UniProt P01344 25-91); assay: SPR (Biacore), germlined IgG
T1 construct: mature; also called IGF-II (67aa); IGF2

[2] = molecular target: T1, IGF-II (amino acids 1-67); assay: SPR (Biacore T100): IgG captured on Protein G', IGF-II injected
Description: (§1) BIACORE® T100 and a CM5 chip coated with Protein G were utilised to set up following assay. Approximately 1000 RU of Protein G′ was immobilized on a CM5 chip using standard amine chemistry immobilization method. Entire assay consisted of three sequential injection of following four reagents 1) Candidate IgG was injected onto Protein G′ at 10 ug/ml at 5 ul/min for 180 sec.

[3] = molecular target: T1, IGF-II (amino acids 1-67); assay: SPR (Biacore), non-germlined IgG
IGF binding protein BP4 = molecular target: T2, IGF binding protein BP4 (UniProt P22692 22-258); assay: SPR (Biacore T100): control with no IGF-II injected before the BP
T2 construct: also called IGF BP4
T2 sequence (looked up): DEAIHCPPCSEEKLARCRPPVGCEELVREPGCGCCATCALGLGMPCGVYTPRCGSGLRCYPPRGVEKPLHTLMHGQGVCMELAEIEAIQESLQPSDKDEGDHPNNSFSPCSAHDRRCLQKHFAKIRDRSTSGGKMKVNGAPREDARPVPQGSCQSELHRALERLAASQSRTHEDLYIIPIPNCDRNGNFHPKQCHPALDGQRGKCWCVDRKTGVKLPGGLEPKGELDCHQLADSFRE
Description: as §1

IGF binding protein BP2 = molecular target: T3, IGF binding protein BP2 (UniProt P18065 36-325); assay: as above
T3 construct: also called IGF BP2
T3 sequence (looked up): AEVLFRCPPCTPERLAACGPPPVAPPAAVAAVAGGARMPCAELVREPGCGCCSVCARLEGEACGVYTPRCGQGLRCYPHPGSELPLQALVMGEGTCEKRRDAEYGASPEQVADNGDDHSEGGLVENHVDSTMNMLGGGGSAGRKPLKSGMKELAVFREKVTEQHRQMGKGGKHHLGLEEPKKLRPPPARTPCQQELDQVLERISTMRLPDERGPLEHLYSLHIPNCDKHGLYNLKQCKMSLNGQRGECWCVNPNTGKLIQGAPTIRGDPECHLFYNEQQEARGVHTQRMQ
Description: as §1

[4] = molecular target: T1, IGF-II (amino acids 1-67); assay: SPR (Biacore T100): IgG captured on Protein G', ligand bound, then BP injected; competitor BP2
Description: as §1

[5] = molecular target: T1, IGF-II (amino acids 1-67); assay: SPR (Biacore T100): IgG captured on Protein G', ligand bound, then BP injected; competitor BP4
Description: as §1

[6] = molecular target: T1, IGF-II (amino acids 1-67); assay: cell-based or functional assay

T1 sequence (P01344 25-91): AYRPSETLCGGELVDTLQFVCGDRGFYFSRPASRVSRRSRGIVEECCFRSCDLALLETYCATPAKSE

B1: X0008-A01 (germlined M0064-F02 IgG) (antibody, V domains shown)
VH: EVQLLESGGGLVQPGGSLRLSCAASGFTFSNYIMWWVRQAPGKGLEWVSVISSSGGMTRYADSVKGRFTISRDNSKNTLYLQMNSLRAEDTAVYYCARDNGDYVGEKGFDIWGQGTMVTVSS
VL: DIQMTQSPSSLSASVGDRVTITCRASQSISNYLNWYQQKPGKAPKLLIYTASTLQSGVPSRFSGSGSGTDFTLTISSLQPEDFATYYCQQSYNSPWTFGQGTKVEIK
**Q.** How did the Kd [1] turn out when B1 was run?
**A.** 0.023 nM

B2: 566A-M0073-C11 IgG (antibody, V domains shown)
VH: EVQLLESGGGLVQPGGSLRLSCAASGFTFSPYDMWWVRQAPGKGLEWVSSISSSGGITAYADSVKGRFTISRDNSKNTLYLQMNSLRAEDTAVYYCARAGYSSSWGYYYYGMDVWGQGTTVTVSS
VL: QSALTQPPSVSVSPGQTASITCSGDRLGDKYASWYQQKPGQSPVLVIYQDTKRPSGIPERFSGSNSGSTATLTISGTQAMDEADYYCQAWDSSTVVFGGGTKLTVL
notes: also called 566A-X0003-B02
**Q.** Does B2 bind [2]?
**A.** no binding (tested: 50 nM)

B3: M0080-G03 IgG (antibody, V domains shown)
VH: EVQLLESGGGLVQPGGSLRLSCAASGFTFSFYQMMWVRQAPGKGLEWVSSISPSGGRTYYADSVKGRFTISRDNSKNTLYLQMNSLRAEDTAVYYCAKDIGLGYCSSTSCYTGTPLDYWGQGTLVTVSS
VL: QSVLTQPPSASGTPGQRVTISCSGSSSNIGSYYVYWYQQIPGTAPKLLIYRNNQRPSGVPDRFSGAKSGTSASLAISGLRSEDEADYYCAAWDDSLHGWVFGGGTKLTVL
notes: also called 566A-M0080-G03; 566A-X0004-A02
**Q.** Does B3 bind [2]?
**A.** no binding (tested: 50 nM)

B4: M0064-E04 IgG (antibody, V domains shown)
VH: EVQLLESGGGLVQPGGSLRLSCAASGFTFSVYDMNWVRQAPGKGLEWVSSISSSGGGTLYADSVKGRFTISRDNSKNTLYLQMNSLRAEDTAVYYCARDSDTSSYYWYYDLWGRGTLVTVSS
VL: DIQMTQSPSSLSASVGDRVTITCQASHDISNYLNWYQQKPGKAPKLLIYAASRLQSGVPSRFSGGGSGTDFSLTISSLQAEDFATYYCQQSYSFPRTFGQGTNLEIK
notes: IgG form of the Fab; also called non-germlined M0064-E04
**Q.** What does the source list for B4?
**A.** Kd [3]: 0.52 nM; binding result (IGF binding protein BP4): no binding (tested: 50 nM); binding result (IGF binding protein BP2): no binding (tested: 50 nM); competition score (0 = does not compete significantly, 5 = competes strongly) [4]: 5 score 0-5; competition score (0 = does not compete significantly, 5 = competes strongly) [5]: 5 score 0-5; IC50, IGF-II stimulated BaF3 cell proliferation (Guava ViaCount) [6]: ~19 nM
